# Experimental data published in the domain aggregation screens of Martell et al. (2025).
# Assay: soluble fraction after stress (log2 fold change); higher = more stays soluble; pooled small domains, quantitative proteomics
# Settings: stress: pH 4
# Outline: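 How much of each domain stays soluble after acid stress, expressed as a fold change, is used to gauge aggregation propensity. Pooled custom libraries of small domains underwent pH 4 stress before high-throughput quantitative proteomics. A higher log2 value means more of the domain stayed soluble.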
row,Sequence,soluble fraction (log2)
1,HMSRTLLVYVTGAVRQPGVYELPEGSRFFDAVKAAGDVLPYAVMEDINMAEPLSDGMKIHIPLDPEQ,-1.01
2,HMSRVFSPSELEIRHAQDVFQALEEAKRQGKGAVSLNGKMIDAPIVARAKLVLEAAAAIYGED,-0.202
3,HMSRVHHGFNISIARNRKGLKQAALADMLGISQQRLSQLENQRVVKDEILEKVSEATGVSVEDLKTIE,0.171
4,HMSRVSVDGEEVNFEGEIPDDPSRIYELLMGALSEQSRVVVKFFVDGKDALLDEGFPSRYQMIEAESV,-0.733
5,HMSRYAFEGNVVRLNQKDFDSWKALFTNIDLVSELTRLDIEFTHDKPKNWFSTASAKLNYQNKNAY,-0.903
6,HMSRYLLPYAFARTQQVLLEEKSGELTLWMHSGSNLGGISEVTRKYAVQHVTHEPMDALLNRISSAYAN,-2.03
7,HMSSAVKRALAELPENWRMIVYYRVVEGLSYAEIAKVLDIPDGSVMSGLHRGKKMLRGLLLEYAQQEGYD,-0.74
8,HMSSDDEAFKRELVGLIPHLRAFARTLTGDPTAADDLAQDAMMKAWDARASYQMGTNMKAWTFMILRNQFY,-1.65
9,HMSSDKVWSFEASGKQLQASYVAFENETVYLRASEDGSLLQFPLTDFGMKDQLVVLELYELSAKINRSN,-0.779
10,HMSSDLSNVVKIIDTLKHKKGALLPILHQIQREIGYIPLKTIDTIAKKLQQTPAEIHGVISFYHQFRTS,0.22
11,HMSSEASALRGWLQTSQYQGSVTLFANALNVPLKTVEDWVYGRSKPSLQHWSQLYEATGLPEYQQ,0.0888
12,HMSSFRDISGTVYVKASAANLRSEPNTSSLIVDTLYYGASLQRISTNDIWTKVKTGNGQIGFMDNSLFQT,≥ 0.43
13,HMSSGSLLTEREIEILAEMAKGLTNKAIGEKLFISVATVKTHILNIYRKLEVSSRVTAVNKAKQMRL,-0.11
14,HMSSGTAYATDAVNVRSGPGTSYTVLGYLSRGEKVTITGTVSNGWTQIQLPGNRLGYVSSAYLSASYPS,-0.115
15,HMSSHNIALDQDVVVTQLKGKVYLVAADGSQKQLAEGDILPKDAVLITPEGASFKGGNQTFTLS,-0.235
16,HMSSIFTRIIAGEIPSYKVAEDENYYAFLDINPLTKGHTLVVPKMEVDYIFDLDDKTLAGMMLFAKKG,-0.455
17,HMSSKIKYSEFITMLDKGEVESVVLKSDTLTITLKHGTGVAAQTKTTTLMEDLSELTKRLEKAGIKDFDK,0.22
18,HMSSLDTLTARETQILAEMAQGKNNAAIAAAVSVSERAVEKHTNSIFAKLGLSEEKDVNRRVMAVLLFLGR,-1.5
19,HMSSLEQVYPNPVSSILKLNSFIKNYKILNATGHEVLKGSGNTINVGKLPSGSYFLITSENYSIKFIK,0.119
20,HMSSLSGVRRTLLDSLGMPPDASDEELADRREELRGSLDTAPQARRKWIEQQLARIDAITALDASG,-0.0243
21,HMSSPEAAEVQRLLKDGQHVQALKIIDESLARNPKDPQMRFRRGVALSMLDRKNEALAVFQKLVED,-0.0849
22,HMSSPRAIYSAIQKAVGEDMILYREDVQIILDKLDADLLVDDILEKMELDGTLVRQRDGTWLLL,-1.01
23,HMSSQVFLGQKNSIAKYDLNENKPIWTKEIKGTPLILSTWKDMLLIQIQTWVSYTHMLVKQENGQTVWE,0.282

row,Sequence,soluble fraction (log2)
1,HMSSRLEIEITSKIDDLSHTWRAVGAKQPKGNIKSSLLPSGVKVGETFRVEADFLLDGIEIVSVLPP,-1.52
2,HMSSSLDQLTVREREILAQVSRGLSNKAIARELGISHDTVKLHVRHILSKLGFSSRVEAAVFAIEHRIG,-0.481
3,HMSSSMDAIAEIIRSIPRGDHLTAPEVYELAKQRGLKLSLSTVYRTLNKLKVVGDVITVSGDRGLRYESV,0.215
4,HMSSTPEPPQAVLDLVNLREQARAGKDWTQSDAFRQQIAALGWTVKDTKDGPVVSLSPTTTE,0.105
5,HMSSTSTMTVAEATIGRKVKHDKFGEGTIITVADVNGDKKLTIAFNQQGVKMLMLSMAKLEL,-1.05
6,HMSSVEVWINGKSSGLTSDNRAQILQQLPAESIERIEVIDNPSAKFSAEGSAGIINIVLKKD,-0.177
7,HMSSVRDNGDLELVPGDRIRHDDYGEGRVTAVTGVGSKRIAHAVFDSVGERKLLIKLSPIEKI,0.235
8,HMSSWMTKDGKIKPISKWAGVPMTSQQQADYAAGKVVELTNIPDKQGQLNTVYLKFNPEKQRPTTSLNDPR,0.22
9,HMSSYETVTLNGQRYFKYKVKSGEGLYAISRMFSTPIAEIIRHNPSSNAGLKNGQELLIPVN,-0.0689
10,HMSSYMQMQLERLESLLQKNDLTDSDKYDIRQLVEDLDKVPESVSPNLVGAYMTIKNRYASVLKTVL,-0.835
11,HMSTANISIEQAKEIALNHANLTSNQVIFSRTELDYDNGIQKYEVEFYYNNREYSYEINANTGDILGYEQ,-0.417
12,HMSTANIVVPDVKGKTFEEAKKAIEAEGLTAKAEGDESGVVQKTSPSYGVSVESGSEVTLTLVKSDD,0.0493
13,HMSTDNINYKNILIASLLIHAAKIDENYTENEKNIIKKALIELDEIDSKKADEIMILAEKKE,-0.271
14,HMSTGYEMVREVANQGSFSKAANSLGVSGPAVSKQVKSLEERLGLVLFHRTTRAVSLTQAGRQLVDVLN,-0.036
15,HMSTIKEKIIQYLDFKGISKYDFYQKTGVSNGVLSQKSGMSEDNIMRFLSYYDDINTDWLFYGKGEMIKT,-1.37
16,HMSTKLLEVNIFDDSKWVNKTIMDSDIPEDILIVMIKRGDEVIVPKGSTIINKGDILVLSANNFDNLLN,-1.97
17,HMSTMTEQEAFGLWERINDFIARTGNEPNRNSNDAHEVRMAEALNFIRIKVAEQRNSQSNSEAQNN,-1.39
18,HMSTNDIFISGDKLVLKNTTGQMDVFDMAGRKVLSSTNNVSEMNVSSLPKGVYVVSASIGGSKMKAKVYK,0.0276
19,HMSTQGRRIEILRHLTQTKKKADVNFVELGRTFGTSDTTIRKDLDWLIKNEYWENHGEWKPTQAGLNMI,-0.00179
20,HMSTRKAFVNGDGVRLRSGPGTNHSIRASLTKGQTVFVTGTKDGWASVSVQGGASGWVSADLLKYE,0.237
21,HMSTRYVRTPAGQAEIQARVFKLSRPVRNLLLVINDSRSIDDWLVQVHGITADDVAMLRAEGLIAEVS,-0.214
22,HMSTSEQVYTTDKVNVRREADTSSEKLGSLEKGTAISRTGTEGEWSVVNYGGVTGYIKTEFLTTEQPQ,0.224
23,HMSTSFQVQVSVLDLRIRKEPTVKGQEVGKISKGIHTITETRSADGYTWGKLESGQGWIALEFTTKLD,0.0132

row,Sequence,soluble fraction (log2)
1,HMSTSLIEFTIDRNNSIANKMIMDANIPEDILVVMIKRNGDVFVPNGSTKILPGDILVLSGNKLKY,-0.785
2,HMSTTDGIERFLASGAVKGIGRTMAARIVEHFGSRTLTVMESEPERLTEVAGIGRKKAESIAASYAELS,-0.137
3,HMSTTYAPYLLGETEQEAIRMARNAGLDPQVVRQSDKSEAGTVILQSHDFGFAMKRGAVILITVSSGPLQ,-0.0322
4,HMSTVTEVHYIAFKNGRIVDIKAALTGSAVTATSIKEQPKIENYNYTTSEVRDGILYHTYAPVA,0.195
5,HMSVADNALSRQAIESRIALFIQNEDPNHPRSDADIQKELAQAGVVISRRAITKYRNHLHIPSASLRRR,-0.12
6,HMSVAPISYSQFESYLEQGKVASVAVGQDTIAGRFTAPVDGKSQFVTTIVNPQILDRIDKSGVEITGV,-0.175
7,HMSVAVKAPLQGTVMKVNVKPGDTVTKGAPVAVIEALKMENDVPAPQDGVVASVDVKSGDSVKTDQVLLTL,-0.00426
8,HMSVDAMDEANERKMAKTFNMIVLGGLLKIRPIVSIESVIKALRKTLPERHHHLIPMNEEAIHIGMDII,-0.288
9,HMSVDDEQLLKIIDDIFQQNPQAVTDAKTDSNAIHFLIGQVMKETKGHADHAISKEIIEKKLS,-0.726
10,HMSVDEVEALYLKIAEDRLEGKLPDKVSESDLMRRYGLTKAQLGAILQRIVHEGWIERTPGHGWRFLPIL,-0.368
11,HMSVFMIIVLKQHAPQEFVDMLMSSIKAKGVQIDVSKGARKTILGLVGNTSVIDREQIAGYEYVDKVIRV,-0.289
12,HMSVFTDIYHQADHETKLMLIHEIKIVGDEKEFRLLKSIIDSTSNDLSKEANDALNAIKIRLALSK,-1.25
13,HMSVFTPLTRSELETFLAPYELGRLLDFQGIAAGSENTNYFISLEKGEYVLTLVERGPVAEMPFFIELLD,-1.49
14,HMSVGDLLENLIRETRAQFSAPPESLGVAEKRRFVALLSQKGGFLLKGAVSRAASVLGVSEQTVYRYLKDS,0.0671
15,HMSVGDLPPEAREIWKLLDGRELSLDLLAEETGRETGALLSTLMMLEMKLLVEHGSDMVYRRIPRR,-1.62
16,HMSVHSAELKKLKAHLLGIIGRELETQPSTENREEMVRQILHQSYESLRLNLPMQLKEELFNEILAEVL,-0.689
17,HMSVLEHVSGNVRRLRLQAGLSQEALARAASVSRRMLVGIESGDVNVSLSTLDRIAAALGVLFPDLVQAP,-0.392
18,HMSVLPAREQVAAILRQAILLRKFKEGQDLTLKDAAELVGSSITPVREAFQILENEGLIELRPNKGAVVL,-0.616
19,HMSVPEDLYFRELEVEGNKVRISGIASTNNRVSALMRNFDQSEWFRDPSLIKVESKSPGVNEFEIVMTRI,-0.761
20,HMSVPNVVGRDQVEASSLLESAGFKVSVKQSYSDSVEQGKVISQSPSGSTTVSPGSTVTITVSQ,-0.155
21,HMSVPRPSAVEVTSLVTGVRDLLPHLGEGYVERVLVEFGFKVDETINALLEGNLPKHLQDLDPSLTKEI,-1.25
22,HMSVPVDEVLAALTQKLTDLRTQAMAAKDFSAVDALKAALTEAGVEVRMSKTGVELIAGPRVDAKKLGTL,-0.268
